Laboratory results: paper PMC8724117

Biological target: dual anticoagulant and antiplatelet (APAC) agent (human) (UniProt P02768)
Assay: atomic force microscopy (tapping mode AFM); APAC alone (1:1000 and 1:20,000 dilution of stock) in PBS with 20 mM MgCl2, drop-casted on mica, imaged in air; volume distribution of 340 molecules evaluated with Gwyddion

## dual anticoagulant and antiplatelet (APAC) agent (from UniProt P02768 25-609)
  stoichiometry N: 3
